Laboratory results taken from patent publication US20150190494A1 (OXFORD UNIVERSITY INNOVATION, published 2015).

How the values were obtained:
fH67 [1] = target: T1, fH67 (UniProt P08603 321-443); experiment: SPR, fHbp immobilised on sensor chip, fH67 flowed over
T1 construct: domain: fH67; Flowed as analyte over immobilised fHbps in SPR; also called factor H
T1 sequence: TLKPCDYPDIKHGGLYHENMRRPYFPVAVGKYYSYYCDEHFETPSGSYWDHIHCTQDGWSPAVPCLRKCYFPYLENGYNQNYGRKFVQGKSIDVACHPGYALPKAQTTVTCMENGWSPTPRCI
Method: Kd values for fH₆₇ binding to the stable V2 fHbps were calculated from the sensogram (fH₆₇ binding to WT V2 fHbp shown in Appendix 3a) and compared to fH₆₇ binding to WT V2 fHbp (Table 3).

fH67 [2] = target: T1, fH67; experiment: SPR, fHbp immobilised on sensor chip, fH67 flowed over; mean ± SD of two determinations

B1: WT V2 fHbp (other)
chain: CSSGGGGVAADIGAGLADALTAPLDHKDKSLQSLTLDQSVRKNEKLKLAAQGAEKTYGNGDSLNTGKLKNDKVSRFDFIRQIEVDGQLITLESGEFQIYKQDHSAVVALQIEKINNPDKIDSLINQRSFLVSGLGGEHTAFNQLPSGKAEYHGKAFSSDDPNGRLHYSIDFTKKQGYGRIEHLKTPEQNVELASAELKADEKSHAVILGDTRYGGEEKGTYHLALFGDRAQEIAGSATVKIREKVHEIGIAGKQ
notes: also called wild type V2 fHbp; V2WT
B1 was tested, and the “Relative Kd” value (fH67 [1]) was 1 fold against WT V2 fHbp and the Kd (fH67 [2]) was 3.18 nM.

B2: M6 V2 fHbp (S35G/D107S/V112T/L114F/S137G/G138D) (other)
chain: CSSGGGGVAADIGAGLADALTAPLDHKDKGLQSLTLDQSVRKNEKLKLAAQGAEKTYGNGDSLNTGKLKNDKVSRFDFIRQIEVDGQLITLESGEFQIYKQSHSAVTAFQIEKINNPDKIDSLINQRSFLVGDLGGEHTAFNQLPSGKAEYHGKAFSSDDPNGRLHYSIDFTKKQGYGRIEHLKTPEQNVELASAELKADEKSHAVILGDTRYGGEEKGTYHLALFGDRAQEIAGSATVKIREKVHEIGIAGKQ
In the case of B2, the “Relative Kd” value (fH67 [1]) is reported as 19.3 fold against WT V2 fHbp and the Kd (fH67 [2]) is reported as 61.3 nM.

B3: M4B V2 fHbp (S35G/L114F/S137G/G138D) (other)
chain: CSSGGGGVAADIGAGLADALTAPLDHKDKGLQSLTLDQSVRKNEKLKLAAQGAEKTYGNGDSLNTGKLKNDKVSRFDFIRQIEVDGQLITLESGEFQIYKQDHSAVVAFQIEKINNPDKIDSLINQRSFLVGDLGGEHTAFNQLPSGKAEYHGKAFSSDDPNGRLHYSIDFTKKQGYGRIEHLKTPEQNVELASAELKADEKSHAVILGDTRYGGEEKGTYHLALFGDRAQEIAGSATVKIREKVHEIGIAGKQ
With B3 the “Relative Kd” value (fH67 [1]) was 3.92 fold against WT V2 fHbp and the Kd (fH67 [2]) was 12.5 nM.

B4: M4A V2 fHbp (S35G/D107S/S137G/G138D) (other)
chain: CSSGGGGVAADIGAGLADALTAPLDHKDKGLQSLTLDQSVRKNEKLKLAAQGAEKTYGNGDSLNTGKLKNDKVSRFDFIRQIEVDGQLITLESGEFQIYKQSHSAVVALQIEKINNPDKIDSLINQRSFLVGDLGGEHTAFNQLPSGKAEYHGKAFSSDDPNGRLHYSIDFTKKQGYGRIEHLKTPEQNVELASAELKADEKSHAVILGDTRYGGEEKGTYHLALFGDRAQEIAGSATVKIREKVHEIGIAGKQ
In the case of B4, the “Relative Kd” value (fH67 [1]) is reported as 2.39 fold against WT V2 fHbp and the Kd (fH67 [2]) is reported as 7.6 nM.

B5: M5 V2 fHbp (S35G/D107S/L114F/S137G/G138D) (other)
chain: CSSGGGGVAADIGAGLADALTAPLDHKDKGLQSLTLDQSVRKNEKLKLAAQGAEKTYGNGDSLNTGKLKNDKVSRFDFIRQIEVDGQLITLESGEFQIYKQSHSAVVAFQIEKINNPDKIDSLINQRSFLVGDLGGEHTAFNQLPSGKAEYHGKAFSSDDPNGRLHYSIDFTKKQGYGRIEHLKTPEQNVELASAELKADEKSHAVILGDTRYGGEEKGTYHLALFGDRAQEIAGSATVKIREKVHEIGIAGKQ
In the case of B5, the “Relative Kd” value (fH67 [1]) is reported as 3.84 fold against WT V2 fHbp and the Kd (fH67 [2]) is reported as 12.2 nM.
